Article PMC9482650, “Quantitative fragmentomics allow affinity mapping of interactomes” (Nature Communications, 2022)

T1: DLG3_3, Q92796
T1 sequence (Q92796 374-475, limits assumed, looked up): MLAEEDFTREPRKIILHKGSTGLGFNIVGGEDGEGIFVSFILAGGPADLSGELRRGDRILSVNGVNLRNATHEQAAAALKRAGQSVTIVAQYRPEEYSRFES

T2: APBA3_1, O96018
T2 sequence (O96018 389-490, limits assumed, looked up): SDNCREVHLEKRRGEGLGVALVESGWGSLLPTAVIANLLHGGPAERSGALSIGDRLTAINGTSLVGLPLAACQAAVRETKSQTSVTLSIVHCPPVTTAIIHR

T3: SHANK1, Q9Y566
T3 sequence (Q9Y566 658-767, limits assumed, looked up): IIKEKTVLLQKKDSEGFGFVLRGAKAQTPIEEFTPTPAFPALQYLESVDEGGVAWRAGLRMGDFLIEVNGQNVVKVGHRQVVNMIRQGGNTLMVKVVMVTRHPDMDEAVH

T4: LNX2_3, Q8N448
T4 sequence (Q8N448 463-564, limits assumed, looked up): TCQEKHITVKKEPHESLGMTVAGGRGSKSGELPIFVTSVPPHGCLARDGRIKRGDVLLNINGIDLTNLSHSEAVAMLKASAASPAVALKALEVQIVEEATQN

T5: NHERF3_4, Q5T2W1
T5 sequence (Q5T2W1 373-468, limits assumed, looked up): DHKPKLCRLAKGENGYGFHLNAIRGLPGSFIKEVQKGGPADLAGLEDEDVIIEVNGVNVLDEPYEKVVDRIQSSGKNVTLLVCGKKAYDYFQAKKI

T6: PDZD2_2, O15018
T6 sequence (O15018 329-429, limits assumed, looked up): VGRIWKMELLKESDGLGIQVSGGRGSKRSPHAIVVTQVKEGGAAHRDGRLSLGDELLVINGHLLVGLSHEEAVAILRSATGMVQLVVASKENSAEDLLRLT

T7: SIPA1L2, Q9P2F8
T7 sequence (Q9P2F8 945-1036, limits assumed, looked up): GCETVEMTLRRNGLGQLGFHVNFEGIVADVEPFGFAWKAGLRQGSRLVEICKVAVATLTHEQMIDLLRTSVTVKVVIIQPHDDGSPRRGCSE

T8: LRRC7, Q96NW7
T8 sequence (Q96NW7 1440-1537, limits assumed, looked up): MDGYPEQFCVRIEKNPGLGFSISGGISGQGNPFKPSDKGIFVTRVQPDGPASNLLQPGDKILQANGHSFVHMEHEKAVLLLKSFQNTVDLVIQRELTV

T9: PDZRN3_1, Q9UPQ7
T9 sequence (Q9UPQ7 244-349, limits assumed, looked up): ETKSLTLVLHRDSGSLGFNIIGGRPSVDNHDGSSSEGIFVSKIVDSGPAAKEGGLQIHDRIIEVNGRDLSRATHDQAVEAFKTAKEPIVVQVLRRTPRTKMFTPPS


Experiments:
Test in all cases: holdup assay
Set-up in all cases: key: below the threshold = too weak to quantify, mostly under pKd 3.1 to 4
Settings in all cases: plain residues with an end cap or a label only (N-terminal biotin on a linker: ado-ado)
DLG5_1, Q8TDM6 = target: DLG5_1, Q8TDM6
MAGI1_2, Q96QZ7 = target: MAGI1_2, Q96QZ7
FRMPD2_3, Q68DX3 = target: FRMPD2_3, Q68DX3
DLG3_3, Q92796 = target: T1, DLG3_3, Q92796
APBA3_1, O96018 = target: T2, APBA3_1, O96018
LIMK2, P53671 = target: LIMK2, P53671
SHANK1, Q9Y566 = target: T3, SHANK1, Q9Y566
Inadl_1, Q8NI35 = target: Inadl_1, Q8NI35
LNX2_3, Q8N448 = target: T4, LNX2_3, Q8N448
GRID2IP_2, A4D2P6 = target: GRID2IP_2, A4D2P6
Inadl_5, Q8NI35 = target: Inadl_5, Q8NI35
GIPC2, Q8TF65 = target: GIPC2, Q8TF65
IL16_3, Q14005 = target: IL16_3, Q14005
NHERF3_4, Q5T2W1 = target: T5, NHERF3_4, Q5T2W1
PDZD2_2, O15018 = target: T6, PDZD2_2, O15018
SIPA1L2, Q9P2F8 = target: T7, SIPA1L2, Q9P2F8
LRRC7, Q96NW7 = target: T8, LRRC7, Q96NW7
Inadl_4, Q8NI35 = target: Inadl_4, Q8NI35
PDZRN3_1, Q9UPQ7 = target: T9, PDZRN3_1, Q9UPQ7
Inadl_9, Q8NI35 = target: Inadl_9, Q8NI35
DLG4_3, P78352 = target: DLG4_3, P78352
SNX27, Q96L92 = target: SNX27, Q96L92
NHERF4_4, Q86UT5 = target: NHERF4_4, Q86UT5
NOS1, P29475 = target: NOS1, P29475
AHNAK1, Q09666 = target: AHNAK1, Q09666
LNX1_3, Q8TBB1 = target: LNX1_3, Q8TBB1
FRMPD4, Q14CM0 = target: FRMPD4, Q14CM0
TJP1_3, Q07157 = target: TJP1_3, Q07157
GORASP1, Q9BQQ3 = target: GORASP1, Q9BQQ3
Chain of GORASP1, Q9BQQ3 (Q9BQQ3 1-208): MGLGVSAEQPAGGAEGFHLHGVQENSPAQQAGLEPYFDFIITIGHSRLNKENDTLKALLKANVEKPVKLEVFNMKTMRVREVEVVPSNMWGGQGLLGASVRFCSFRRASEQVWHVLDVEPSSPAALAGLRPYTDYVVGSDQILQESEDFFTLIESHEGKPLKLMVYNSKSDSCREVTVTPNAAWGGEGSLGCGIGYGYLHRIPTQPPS

Chain of GIPC2, Q8TF65 (Q8TF65 112-203): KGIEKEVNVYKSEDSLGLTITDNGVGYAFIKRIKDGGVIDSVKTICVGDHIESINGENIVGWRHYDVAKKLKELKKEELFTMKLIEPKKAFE
Chain of NOS1, P29475 (P29475 9-101): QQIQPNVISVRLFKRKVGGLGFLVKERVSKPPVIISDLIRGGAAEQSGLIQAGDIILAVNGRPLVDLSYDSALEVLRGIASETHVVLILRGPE
Chain of MAGI1_2, Q96QZ7 (Q96QZ7 456-580): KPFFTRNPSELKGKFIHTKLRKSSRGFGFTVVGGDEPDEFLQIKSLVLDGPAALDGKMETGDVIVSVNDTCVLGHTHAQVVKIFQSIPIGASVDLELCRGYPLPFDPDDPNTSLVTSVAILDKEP
Chain of FRMPD4, Q14CM0 (Q14CM0 67-160): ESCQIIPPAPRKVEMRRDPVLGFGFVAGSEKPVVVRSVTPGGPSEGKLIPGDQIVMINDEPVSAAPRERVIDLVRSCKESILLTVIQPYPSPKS
Chain of NHERF4_4, Q86UT5 (Q86UT5 464-550): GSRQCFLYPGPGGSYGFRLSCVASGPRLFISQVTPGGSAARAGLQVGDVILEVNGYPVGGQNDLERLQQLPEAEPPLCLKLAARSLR
Chain of Inadl_5, Q8NI35 (Q8NI35 673-780): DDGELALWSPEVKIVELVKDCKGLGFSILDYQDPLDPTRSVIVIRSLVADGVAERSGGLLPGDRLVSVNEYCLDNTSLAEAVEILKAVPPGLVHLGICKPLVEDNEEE
Chain of DLG4_3, P78352 (P78352 306-403): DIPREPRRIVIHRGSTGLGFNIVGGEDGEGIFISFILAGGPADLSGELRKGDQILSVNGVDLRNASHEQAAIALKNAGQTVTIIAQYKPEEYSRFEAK
Chain of LNX1_3, Q8TBB1 (Q8TBB1 500-596): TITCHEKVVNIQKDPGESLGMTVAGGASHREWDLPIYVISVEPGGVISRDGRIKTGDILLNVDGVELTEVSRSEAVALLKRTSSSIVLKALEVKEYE
Chain of Inadl_9, Q8NI35 (Q8NI35 1530-1615): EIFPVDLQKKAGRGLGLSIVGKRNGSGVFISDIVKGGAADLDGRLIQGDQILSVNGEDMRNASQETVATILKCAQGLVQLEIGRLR
Chain of Inadl_1, Q8NI35 (Q8NI35 113-229): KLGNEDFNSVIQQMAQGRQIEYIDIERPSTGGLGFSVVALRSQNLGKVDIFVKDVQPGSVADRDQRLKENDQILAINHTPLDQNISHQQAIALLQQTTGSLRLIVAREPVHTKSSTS
Chain of IL16_3, Q14005 (Q14005 1107-1207): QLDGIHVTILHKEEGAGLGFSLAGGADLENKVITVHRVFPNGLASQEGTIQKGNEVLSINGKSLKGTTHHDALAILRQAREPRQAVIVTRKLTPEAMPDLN
Chain of LIMK2, P53671 (P53671 143-248): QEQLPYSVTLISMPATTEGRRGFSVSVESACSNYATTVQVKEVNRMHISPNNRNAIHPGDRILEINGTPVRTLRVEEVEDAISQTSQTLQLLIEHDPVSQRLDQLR
Chain of FRMPD2_3, Q68DX3 (Q68DX3 1073-1166): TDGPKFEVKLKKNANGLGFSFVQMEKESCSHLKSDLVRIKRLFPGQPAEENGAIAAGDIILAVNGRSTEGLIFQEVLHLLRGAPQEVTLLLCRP
Chain of TJP1_3, Q07157 (Q07157 416-512): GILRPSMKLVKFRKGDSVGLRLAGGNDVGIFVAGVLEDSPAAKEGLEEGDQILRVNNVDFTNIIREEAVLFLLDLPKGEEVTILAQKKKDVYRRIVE
Chain of Inadl_4, Q8NI35 (Q8NI35 547-651): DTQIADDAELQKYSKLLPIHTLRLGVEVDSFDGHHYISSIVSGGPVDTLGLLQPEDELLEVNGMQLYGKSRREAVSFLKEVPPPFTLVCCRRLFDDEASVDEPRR
Chain of AHNAK1, Q09666 (Q09666 4-100): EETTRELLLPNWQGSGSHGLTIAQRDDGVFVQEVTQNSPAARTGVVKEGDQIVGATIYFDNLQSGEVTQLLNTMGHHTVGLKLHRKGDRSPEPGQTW
Chain of GRID2IP_2, A4D2P6 (A4D2P6 272-370): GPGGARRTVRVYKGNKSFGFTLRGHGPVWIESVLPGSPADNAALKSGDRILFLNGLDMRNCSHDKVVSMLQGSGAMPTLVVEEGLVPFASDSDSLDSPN
Chain of DLG5_1, Q8TDM6 (Q8TDM6 617-713): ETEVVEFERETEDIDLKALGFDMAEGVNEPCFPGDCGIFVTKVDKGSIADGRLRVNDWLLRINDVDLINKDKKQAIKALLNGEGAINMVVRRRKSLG

Binder | pKd (DLG5_1, Q8TDM6) | pKd (MAGI1_2, Q96QZ7) | pKd (FRMPD2_3, Q68DX3) | pKd (DLG3_3, Q92796) | pKd (APBA3_1, O96018) | pKd (LIMK2, P53671) | pKd (SHANK1, Q9Y566) | pKd (Inadl_1, Q8NI35) | pKd (LNX2_3, Q8N448) | pKd (GRID2IP_2, A4D2P6) | pKd (Inadl_5, Q8NI35) | pKd (GIPC2, Q8TF65) | pKd (IL16_3, Q14005) | pKd (NHERF3_4, Q5T2W1) | pKd (PDZD2_2, O15018) | pKd (SIPA1L2, Q9P2F8) | pKd (LRRC7, Q96NW7) | pKd (Inadl_4, Q8NI35) | pKd (PDZRN3_1, Q9UPQ7) | pKd (Inadl_9, Q8NI35) | other results
WRSKRTDTLL [RAMP3, O60896] | below the threshold | 4.43 | below the threshold | below the threshold | below the threshold | below the threshold | below the threshold | below the threshold | below the threshold | below the threshold | below the threshold | below the threshold | below the threshold | 3.53 | 3.52 | below the threshold | below the threshold | below the threshold | 3.73 | below the threshold | pKd (DLG4_3, P78352): below the threshold; pKd (SNX27, Q96L92): 4.31; pKd (NHERF4_4, Q86UT5): below the threshold; pKd (NOS1, P29475): 3.89; pKd (AHNAK1, Q09666): below the threshold; pKd (LNX1_3, Q8TBB1): below the threshold; pKd (FRMPD4, Q14CM0): 4.7; pKd (TJP1_3, Q07157): below the threshold; pKd (GORASP1, Q9BQQ3): 3.78
VISERNSTTV [C3AR1, Q16581] | below the threshold | 4.4 | below the threshold | below the threshold | below the threshold | below the threshold | 3.49 | below the threshold | below the threshold | 3.66 | 3.65 | below the threshold | below the threshold | below the threshold | 4.55 | below the threshold | below the threshold | below the threshold | below the threshold | 3.64 | pKd (DLG4_3, P78352): 3.54; pKd (SNX27, Q96L92): 4.57; pKd (NHERF4_4, Q86UT5): below the threshold; pKd (NOS1, P29475): below the threshold; pKd (AHNAK1, Q09666): below the threshold; pKd (LNX1_3, Q8TBB1): below the threshold; pKd (FRMPD4, Q14CM0): below the threshold; pKd (TJP1_3, Q07157): below the threshold; pKd (GORASP1, Q9BQQ3): below the threshold
PDGEMMEVLI [AMOTL1, Q8IY63] | below the threshold | below the threshold | below the threshold | below the threshold | below the threshold | below the threshold | below the threshold | below the threshold | below the threshold | below the threshold | below the threshold | below the threshold | below the threshold | below the threshold | 3.77 | below the threshold | below the threshold | below the threshold | below the threshold | 3.58 | pKd (DLG4_3, P78352): below the threshold; pKd (SNX27, Q96L92): below the threshold; pKd (NHERF4_4, Q86UT5): below the threshold; pKd (NOS1, P29475): 4.01; pKd (AHNAK1, Q09666): below the threshold; pKd (LNX1_3, Q8TBB1): below the threshold; pKd (FRMPD4, Q14CM0): below the threshold; pKd (TJP1_3, Q07157): below the threshold; pKd (GORASP1, Q9BQQ3): 3.76
